In one data set the target is T1, Cas12j-8 WT (bacteriophage (metagenome)).
T1 chain: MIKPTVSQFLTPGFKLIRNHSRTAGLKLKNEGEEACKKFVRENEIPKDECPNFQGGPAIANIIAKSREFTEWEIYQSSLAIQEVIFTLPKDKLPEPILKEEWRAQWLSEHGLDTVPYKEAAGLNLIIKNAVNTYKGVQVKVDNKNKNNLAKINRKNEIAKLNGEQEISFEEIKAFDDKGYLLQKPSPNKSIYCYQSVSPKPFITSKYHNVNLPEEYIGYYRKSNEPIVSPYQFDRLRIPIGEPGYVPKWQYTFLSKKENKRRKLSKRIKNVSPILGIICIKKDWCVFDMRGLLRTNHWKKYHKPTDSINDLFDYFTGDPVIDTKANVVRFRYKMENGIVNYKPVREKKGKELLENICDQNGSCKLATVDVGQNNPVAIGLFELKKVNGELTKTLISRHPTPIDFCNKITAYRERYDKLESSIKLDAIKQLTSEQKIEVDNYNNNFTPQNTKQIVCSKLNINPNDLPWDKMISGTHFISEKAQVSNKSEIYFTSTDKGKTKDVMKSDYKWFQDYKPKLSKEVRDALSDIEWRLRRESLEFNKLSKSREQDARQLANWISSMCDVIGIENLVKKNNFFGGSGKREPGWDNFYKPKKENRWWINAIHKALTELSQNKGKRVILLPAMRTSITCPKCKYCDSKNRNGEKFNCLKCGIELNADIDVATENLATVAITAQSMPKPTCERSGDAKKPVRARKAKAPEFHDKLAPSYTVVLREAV
The data set can be described thus: HEK293T cells. The following applies: tags: NLS.

The target of data set [1] is T2, Cas12j-8 E258R+D313R+D495R+D527R+E547R (bacteriophage (metagenome), E258R;D313R;D495R;D527R;E547R).
T2 chain: T1 chain with E258R, D313R, D495R, D527R, E547R
The data set can be described thus: HEK293T cells. Conditions: tags: NLS.

Where a chain is given by its changes, count along the chain named.

B1: sod1site5 (mixed)
RNA: CUUUCAAGACUAAUAGAUUGCUCCUUACGAGGAGACAUUAUUAGGCAUGUUGGAGA
DNA 1: TTCATTATTAGGCATGTTGGAGA
DNA 2: TCTCCAACATGCCTAATAATGAA
On to B1, for which the indel frequency with Cas12j-8 WT came out at 16.5 % indels; in data set [1], 59.7 % indels.

B2: ccr5site9 (mixed)
RNA: CUUUCAAGACUAAUAGAUUGCUCCUUACGAGGAGACAGAUCUGGUAAAGAUGAUUC
DNA 1: TTGAGATCTGGTAAAGATGATTC
DNA 2: GAATCATCTTTACCAGATCTCAA
B2: the figures for the indel frequency (with Cas12j-8 WT; in data set [1]) were 45.4 % indels and 72.7 % indels, respectively.

B3: apobsite10 (mixed)
RNA: CUUUCAAGACUAAUAGAUUGCUCCUUACGAGGAGACGCAGGCGACCAGUGGGCGAG
DNA 1: TTGGCAGGCGACCAGTGGGCGAG
DNA 2: CTCGCCCACTGGTCGCCTGCCAA
Take B3: the indel frequency with Cas12j-8 WT is 8.3 % indels; in data set [1], 22.1 % indels.

B4: ccr5site5 (mixed)
RNA: CUUUCAAGACUAAUAGAUUGCUCCUUACGAGGAGACGAAAUACAAUGUGUCAACUC
DNA 1: TTGGAAATACAATGTGTCAACTC
DNA 2: GAGTTGACACATTGTATTTCCAA
For B4, the indel frequency came to 12.1 % indels in the data set with Cas12j-8 WT and 54 % indels in data set [1].

B5: alas1site9 (mixed)
RNA: CUUUCAAGACUAAUAGAUUGCUCCUUACGAGGAGACGCAUGACUCCAUCCCGAUCC
DNA 1: TTGGCATGACTCCATCCCGATCC
DNA 2: GGATCGGGATGGAGTCATGCCAA
With B5, the indel frequency with Cas12j-8 WT amounted to 20 % indels; in data set [1] it was 44 % indels.

B6: tcfsite8 (mixed)
RNA: CUUUCAAGACUAAUAGAUUGCUCCUUACGAGGAGACCAGGCUCUGACUCAGGGAAG
DNA 1: TTGCAGGCTCTGACTCAGGGAAG
DNA 2: CTTCCCTGAGTCAGAGCCTGCAA
As for B6, the indel frequency with Cas12j-8 WT was 2.92 % indels.

B7: vegfasite4 (mixed)
RNA: CUUUCAAGACUAAUAGAUUGCUCCUUACGAGGAGACUUGUGCUGUAGGAAGCUCAU
DNA 1: TTGTTGTGCTGTAGGAAGCTCAT
DNA 2: ATGAGCTTCCTACAGCACAACAA
Molecule B7 returned an indel frequency with Cas12j-8 WT of 5.55 % indels.

B8: alas1site3 (mixed)
RNA: CUUUCAAGACUAAUAGAUUGCUCCUUACGAGGAGACGUGAUGAGGGAGUCUGAAUA
DNA 1: TTGGTGATGAGGGAGTCTGAATA
DNA 2: TATTCAGACTCCCTCATCACCAA
On to B8, for which the indel frequency with Cas12j-8 WT was 10.1 % indels; in data set [1] it was 34.2 % indels.

B9: cxcr4site8 (mixed)
RNA: CUUUCAAGACUAAUAGAUUGCUCCUUACGAGGAGACAGCACAUCAUGGUUGGCCUU
DNA 1: TTCAGCACATCATGGTTGGCCTT
DNA 2: AAGGCCAACCATGATGTGCTGAA
As to B9, the indel frequency with Cas12j-8 WT came to 10.9 % indels; in data set [1], 36.5 % indels.

B10: vegfasite3 (mixed)
RNA: CUUUCAAGACUAAUAGAUUGCUCCUUACGAGGAGACUGCUGUCUUGGGUGCAUUGG
DNA 1: TTCTGCTGTCTTGGGTGCATTGG
DNA 2: CCAATGCACCCAAGACAGCAGAA
With B10, the indel frequency is 44.7 % indels in the data set with Cas12j-8 WT and 77.4 % indels in data set [1].

B11: cishsite3 (mixed)
RNA: CUUUCAAGACUAAUAGAUUGCUCCUUACGAGGAGACACUGACAGCGUGAACAGGUA
DNA 1: TTCACTGACAGCGTGAACAGGTA
DNA 2: TACCTGTTCACGCTGTCAGTGAA
Consider B11, for which the results for the indel frequency (in the data set with Cas12j-8 WT; in data set [1]) were 2.97 % indels and 43.1 % indels, respectively.

B12: cd274site6 (mixed)
RNA: CUUUCAAGACUAAUAGAUUGCUCCUUACGAGGAGACGUUGUGGAUCCAGUCACCUC
DNA 1: TTGGTTGTGGATCCAGTCACCTC
DNA 2: GAGGTGACTGGATCCACAACCAA
With B12, the indel frequency turned out to be 21 % indels in the data set with Cas12j-8 WT and 59.2 % indels in data set [1].

B13: tgfbr2site8 (mixed)
RNA: CUUUCAAGACUAAUAGAUUGCUCCUUACGAGGAGACCCAGGUUGAACUCAGCUUCU
DNA 1: TTCCCAGGTTGAACTCAGCTTCT
DNA 2: AGAAGCTGAGTTCAACCTGGGAA
Take B13: the indel frequency was 14.8 % indels with Cas12j-8 WT and 51.6 % indels in data set [1].

B14: cd274site9 (mixed)
RNA: CUUUCAAGACUAAUAGAUUGCUCCUUACGAGGAGACCUCAGGAUCUAAUCUCCUAA
DNA 1: TTCCTCAGGATCTAATCTCCTAA
DNA 2: TTAGGAGATTAGATCCTGAGGAA
As to B14, the indel frequency with Cas12j-8 WT came to 9.46 % indels; in data set [1], 34.3 % indels.

B15: cishsite2 (mixed)
RNA: CUUUCAAGACUAAUAGAUUGCUCCUUACGAGGAGACGCUCACUCUCUGUCUGGGCU
DNA 1: TTGGCTCACTCTCTGTCTGGGCT
DNA 2: AGCCCAGACAGAGAGTGAGCCAA
Regarding B15, the indel frequency in data set [1] stood at 16.3 % indels.

B16: apobsite4 (mixed)
RNA: CUUUCAAGACUAAUAGAUUGCUCCUUACGAGGAGACGUGGCAAAUCCUCCAGAGAU
DNA 1: TTGGTGGCAAATCCTCCAGAGAT
DNA 2: ATCTCTGGAGGATTTGCCACCAA
Take B16: the indel frequency was 11.9 % indels in the data set with Cas12j-8 WT and 27.8 % indels in data set [1].

B17: ccr5site4 (mixed)
RNA: CUUUCAAGACUAAUAGAUUGCUCCUUACGAGGAGACCUUCUUACUGUCCCCUUCUG
DNA 1: TTCCTTCTTACTGTCCCCTTCTG
DNA 2: CAGAAGGGGACAGTAAGAAGGAA
As to B17, the indel frequency was determined as 28.2 % indels with Cas12j-8 WT and 68.7 % indels in data set [1].

B18: cxcr4site5 (mixed)
RNA: CUUUCAAGACUAAUAGAUUGCUCCUUACGAGGAGACGGAACUUCCUAUGCAAGGCA
DNA 1: TTGGGAACTTCCTATGCAAGGCA
DNA 2: TGCCTTGCATAGGAAGTTCCCAA
Take B18: the results for the indel frequency (with Cas12j-8 WT; in data set [1]) were 35.6 % indels and 61.4 % indels, respectively.

B19: tcfsite3 (mixed)
RNA: CUUUCAAGACUAAUAGAUUGCUCCUUACGAGGAGACCUAAACCAAGUCCCAGACAU
DNA 1: TTCCTAAACCAAGTCCCAGACAT
DNA 2: ATGTCTGGGACTTGGTTTAGGAA
In turn, B19 returned an indel frequency with Cas12j-8 WT of 3.82 % indels.

B20: tigitsite4 (mixed)
RNA: CUUUCAAGACUAAUAGAUUGCUCCUUACGAGGAGACUAGGACCUCCAGGAAGAUUC
DNA 1: TTCTAGGACCTCCAGGAAGATTC
DNA 2: GAATCTTCCTGGAGGTCCTAGAA
Take B20: the indel frequency in data set [1] is 28.3 % indels.

B21: apobsite9 (mixed)
RNA: CUUUCAAGACUAAUAGAUUGCUCCUUACGAGGAGACCAAGCAGAAGCCAGAAGUGA
DNA 1: TTGCAAGCAGAAGCCAGAAGTGA
DNA 2: TCACTTCTGGCTTCTGCTTGCAA
As to B21, the indel frequency with Cas12j-8 WT amounted to 1.17 % indels; in data set [1], 15.6 % indels.

B22: ccr5site10 (mixed)
RNA: CUUUCAAGACUAAUAGAUUGCUCCUUACGAGGAGACCAUACAGUCAGUAUCAAUUC
DNA 1: TTCCATACAGTCAGTATCAATTC
DNA 2: GAATTGATACTGACTGTATGGAA
On to B22, for which the indel frequency with Cas12j-8 WT is 4.92 % indels.

B23: pcsk9site5 (mixed)
RNA: CUUUCAAGACUAAUAGAUUGCUCCUUACGAGGAGACUGUCACAGAGUGGGACAUCA
DNA 1: TTGTGTCACAGAGTGGGACATCA
DNA 2: TGATGTCCCACTCTGTGACACAA
As for B23, the indel frequency amounted to 25.8 % indels with Cas12j-8 WT and 61.2 % indels in data set [1].

B24: angptl3site12 (mixed)
RNA: CUUUCAAGACUAAUAGAUUGCUCCUUACGAGGAGACCAGUCUUCCAACUCAAUUCG
DNA 1: TTCCAGTCTTCCAACTCAATTCG
DNA 2: CGAATTGAGTTGGAAGACTGGAA
In data set [1], B24 had an indel frequency of 22.2 % indels.

Source of the values: publication PMC12412624, “Engineered Cas12j‐8 is a Versatile Platform for Multiplexed Genome Modulation in Mammalian Cells”.
